Assay results from PMC11464796.

Biological target: Msm RNAP core, recombinant (α, ω, β–β′ fusion with C-terminal His8) (Mycobacterium smegmatis) (UniProt A0QSL8)

ATPase activity of the HelD–core and HelD–holoenzyme complexes against free HelD: 2.5 fold
B1: Msm HelD, wild type, recombinant tag-less (enzyme)
chain: MSGRDYEDELQSERDYVAGLYARLDAERAQSQRRYAAALREHGGTAVERDAEVRALAKDIARLNVADNGLCFGRLDTLDDARLYIGRLGIFDRDNDFEPLLLDWRAPMARPFYVATAANPENMRRRRQFHTLGRKVVDFTDEILGRPTGAEHDATNDAALLAAVNAPRGEGMRDIVATIQAEQDQVIRLDHTGVLVIEGGPGTGKTVVALHRVAYLLYTYRKQMERHGVLVVGPTPAFLDHIGRVLPSLGESDAVFMTPGDFVPGLHVTAEDTPEAAEVKGSLKILDVLKAAVADRQELPSEPIPIDLSDVTMRIDAETAKWARDEARKTGLPHNEARAEFVDVVTYVVTERAVARIGRGWLTRDDKHAWEKMRADVVGELEDHEQFNAALDALWPILTPEDVLAQLYTSHERLRAAGAPECLWRADGEAWTVSDVPLLDELVDLLGRNKAADEAAERERREEEAYAAGVLDLMVDREDLMDDEDHLLAQDLIDAEELADRFKEQDNRELSERAAADREWTYGHVVVDEAQELSEMDWRLLMRRCPRRSFTIVGDLAQRRSPAGARSWGAMLDSYVPGRWVYKSLSVNYRTPAEIMAVAAAVLAEFAPDATPPDSVRACGVAPWARQVTDDDIASAIAEFVSEEAGREGTSVVIGPPDVPGTVPPSETKGLEFDAVLVVEPERILADGPRGAAELYVALTRATQRLGVLYRDALPQALAGLAEGDAAATVEQRTSA
